# B1: Escherichia coli FtsZ, full length, untagged, wildtype (natural protein, E. coli, UniProt P0A9A6 1-383, looked up)
# chain: MFEPMELTNDAVIKVIGVGGGGGNAVEHMVRERIEGVEFFAVNTDAQALRKTAVGQTIQIGSGITKGLGAGANPEVGRNAADEDRDALRAALEGADMVFIAAGMGGGTGTGAAPVVAEVAKDLGILTVAVVTKPFNFEGKKRMAFAEQGITELSKHVDSLITIPNDKLLKVLGRGISLLDAFGAANDVLKGAVQGIAELITRPGLMNVDFADVRTVMSEMGYAMMGSGVASGEDRAEEAAEMAISSPLLEDIDLSGARGVLVNITAGFDLRLDEFETVGNTIRAFASDNATVVIGTSLDPDMNDELRVTVVATGIGMDKRPEITLVTNKQVQQPVMDRYQQHGMAPLTQEQKPVAKVVNDNAPQTAKEPDYLDIPAFLRKQAD
# notes: also called EcFtsZ; E. coli FtsZ; source: E. coli C41 (DE3), purified (GTP and calcium-induced precipitation, Mono Q)
# Biological target: the molecule itself
# Assay: cryo-EM structure; EcFtsZ 0.5 mg/mL in 50 mM HEPES-KOH, 100 mM potassium acetate, 5 mM magnesium acetate, pH 7.7, 20 °C, 0.1 mM GMPCPP; helical reconstruction of filaments in RELION
protein,measurement,value
B1,binding result,binds
